{
  "source": "the DeepSol protein solubility set",
  "data": [
    {"assay": "soluble on expression in E. coli; label from the status in PepcDB or PDB records", "values": [
      {"sequence": "MGSDKIHHHHHHMTKHFSPYDADKPLFATCSCGQHASEEDHLKAGMSTLEHQETGRSTEEEFSNDFIEAALVKAILPHERQRRDFLRAVGKGAAMAAISAVFPLGSLKAMAMEKGSIEKSTLKVGFIPITCAAPLILAEPMGFFKEQGLNVELNKTAGWALVRDKIMNHEYDASQFLAPMPLAMTLGAGSSAQTVNVAAIQNVNGQAIVLALKHKSNRDPKNWKGFKFAIPFEFSMHNFLLRYYLAEAGIDPDRDVQLRVVPPAEMLANLRAGNIDGFLGPDPFSQRAVFEGVGFIHILSQDIWNGHPCCSFGASASFIQQNPNTFAALYRAFLKSSAFAHDKNNRKEVAAIISKPKYLNQPEIIVNQVITGRYADGLGNIVNAPGRVGFEAIPWEGMALWMLTQMKRWGYLKGDVSYQAIAEKVFMMTDAKKAMQGLGLEVPQSSGKIVVMGKAFDPLKPQSYVDSFGIKR", "soluble on expression in E. coli": "not soluble"},
      {"sequence": "MSLKITSIETIPIKVPIKPEFAIRSGRGGSHVVSPFLLVKVHTDAGITGLGEVSCTPRWSGEDQVSAAHFIKTYLAPLLEGEDPRQIESLTAKFRLGVAGNFFTKSGIEMALWDIAGKAAGKPVYELLGGTVREFIPTKWSVSGQEPDKAADIARWAVAQGFKAMKVKVGIEPDKDVARVAAVRAAIGSQIKLGVDANGGWSREVAASTIERLYASSIYFAEQPIPPEDLLYLPELRKQLKVPIIADESIYSLQDAMTLAHLQAADVFSIYVGKAGGIGPARKIAQFAESVGLKCTVGSNLELGIGSAAMIHLAIATHAIDAESYPCDIIGPMFYEDDMLVEPLPIVAGKAQPNSKPGLGVELNEKTVEKYRVCEGHHHHHH", "soluble on expression in E. coli": "soluble"},
      {"sequence": "MRWRADFLSAWAEALLRKAGADEPSAKAVAWALVEADLRGVGSHGLLRLPVYVRRLEAGLVNPSPTLPLEERGPVALLDGEHGFGPRVALKAVEAAQSLARRHGLGAVGVRRSTHFGMAGLYAEKLAREGFVAWVTTNAEPDVVPFGGREKALGTNPLAFAAPAPQGILVADLATSESAMGKVFLAREKGERIPPSWGVDREGSPTDDPHRVYALRPLGGPKGYALALLVEVLSGVLTGAGVAHGIGRMYDEWDRPQDVGHFLLALDPGRFVGKEAFLERMGALWQALKATPPAPGHEEVFLPGELEARRRERALAEGMALPERVVAELKALGERYGVPWRDDA", "soluble on expression in E. coli": "soluble"},
      {"sequence": "SLRKERARSAEEPWTQNQQKLLELALQQYPRGSSDCWDKIARCVPSKSKEDCIARYKLLV", "soluble on expression in E. coli": "soluble"},
      {"sequence": "MAHHHHHHMDRRHLELEDAQERASAEEVATQASAEHKHYMNDSDEDSDEENGIDDEQSASLVAMLRTQEEIDSAIAGFTKGTRMLLASSGNGYVSYLDGSVHFTIAKVESHNASNREKVMQALAGTNVAMPTAEEYSLEEVRQAMHDRDTARKKLDALRALQDPTYTARIRSAEKDTYGTPVQQLMEEDGDMSALVANCEDAKRFAESVRKAYNSRAAASAHALACALCTPPFTAEQESTSEAQAPAGKMANAEDGVSQPTGANSPSSSTSAQ", "soluble on expression in E. coli": "soluble"},
      {"sequence": "MGSDKIHHHHHHMQATTATPHDIVFLFDCDNTLLDNDHVLADLRAHMMREFGAQNSARYWEIFETLRTELGYADYLGALQRYRLEQPRDTRLLLMSSFLIDYPFASRVYPGALNALRHLGARGPTVILSDGDVVFQPRKIARSGLWDEVEGRVLIYIHKELMLDQVMECYPARHYVMVDDKLRILAAMKKAWGARLTTVFPRQGHYAFDPKEISSHPPADVTVERIGDLVEMDAEWLLAEKR", "soluble on expression in E. coli": "not soluble"},
      {"sequence": "HMDIRTITSSDYEMVTSVLNEWWGGRQLKEKLPRLFFEHFQDTSFITSEHNSMTGFLIGFQSQSDPETAYIHFSGVHPDFRKMQIGKQLYDVFIETVKQRGCTRVKCVTSPVNKVSIAYHTKLGFDIEKGTKTVNGISVFANYDGPGQDRVLFVKNI", "soluble on expression in E. coli": "soluble"},
      {"sequence": "TTLSCKVTSVEAITDTVYRVRIVPDAAFSFRAGQYLMVVMDERDKRPFSMASTPDEKGFIELHIGASEINLYAKAVMDRILKDHQIVVDIPHGEAWLRDDEERPMILIAGGTGFSYARSILLTALARNPNRDITIYWGGREEQHLYDLCELEALSLKHPGLQVVPVVEQPEAGWRGRTGTVLTAVLQDHGTLAEHDIYIAGRFEMAKIARDLFCSERNAREDRLFGDAFAFI", "soluble on expression in E. coli": "soluble"},
      {"sequence": "MGSDKIHHHHHHVQDKNFDKLAQKFAKNIYGTPKGDIRAAVLWRDLAPALAKLGDRKLRVLDAGGGFGYFSQKLARLGHEVVLCDISAEMLAQAQEQIDASPEPLAIQLIHAPIQALSVEQHGYFDIILCHAVVEWLTDAKPTMAGLLTMLKPAGLFSLMFYNKEAMRFHALVSGNFDYVAADLKVKKKVQLTPTHPLYIQEVKEWFSDWQMSLISQSGVRVIHDYLKKSQPVDFDYQKLLQMELEYSQREPYISLGRYVHFLGQSPAV", "soluble on expression in E. coli": "not soluble"},
      {"sequence": "MILAVLQARMGSSRLPGKSMATLQGEPMIVRQLERLRGARCLSKIIVATSQDPADDALAGFLVSRGNTVHRGAGADILARIARCADAISAVSHVVRLKGDAPFMDPGVVDDAVRMALASGADYTSNRVHRTYPAGLEVEVIKAGVLRQAAAEERDPTARISPTAAIRNQPERWRQAHLRAARDCSRLDWRVKTAADLAFARSVYDALHPGDPDFRMGDVLDLLENRQDIARFAALEHHHHHH", "soluble on expression in E. coli": "not soluble"},
      {"sequence": "GSRRASVGSHEVEKSGLLNMTKIAQGGRKLRKNWGPSWVVLTGNSLVFYREPPPTAPSSGWGPAGSRPESSVDLRGAALAHGRHLSSRRNVLHIRTIPGHEFLLQSDHETELRAWHRALRTVIERLVRW", "soluble on expression in E. coli": "soluble"},
      {"sequence": "MSRNRVMSIDFQQLPHAGIRSLIPYVPGKSIEELAKEKGITDIIKLASNENPLGCSPLALSVIQTMSSHYIATYPSPWNHPLMSKLASYLKVKPEQLFLSNGSDYLFNILLNCFALHTDRHILTHDYAFSTYAIQANSLQIPINSVPIGHNWEVNITDIVNACNQQTGIIFIANPNNPTGVLIQQEEIKYLLEQIPKSTLLVLDEAYYEFAASQLTVNSLDWLEEHPNLVVTRTFSKIYGMAGLRLGYAIANPSIINILKRVQLPFIVNQVALAAAYAAIDDDDFIQSSLKMNNEGMLQLQAGFNELNIKYLPSSCNFLTFDCEEDSMALYNYLLDNGIIVRPLHAYKMNNFIRVTIGTKEQNSRFLTALKNFYL", "soluble on expression in E. coli": "not soluble"},
      {"sequence": "SNAMSDKFHILLLNGPNLNLLGTREPEKYGYTTLAEIVSQLEIQAQGMDVALSHLQSNAEHALIDSIHQARGNTDFILINPAAFTHTSVALRDALLGVQIPFIEIHLSNVHAREPFRHHSYLSDIAVGVICGLGADGYNFALQAAVNRLSKSN", "soluble on expression in E. coli": "soluble"},
      {"sequence": "MNLPQNIRYRRYQDWTEEEIKSIKTNVALSPWHTTYHIEPKTGLLNDPNGFSYFNGKFNLFYQNWPFGAAHGLKSWIHTESEDLVHFKETGTVLYPDTSHDSHGAYSGSAYEIGDQLFLFYTGNVRDENWVRHPLQIGAFMDKKGNIQKFTDVLIKQPNDVTEHFRDPQIFNYKGQFYAIVGAQSLDKKGFIKLYKAVDNDIKNWQEVGNLDFGGSKSEYMIECPNLVFINEQPVLIYSPQGLSKSELDYHNIYPNTYKVCQSFDTEKPALVDASEIQNLDFGFECYATQAFNAPDGRVYAVSWIGLPDIDYPSDSYDYQGALSLVKELSLKHGKLYQYPVEAVRSLRSEKEAVTYKPETNNTYELELTFDSSSVNELLLFADNKGNGLAITVDTKMGTILIDRSKAGEQYALEFGSQRSCSIQAKETVVNIFVDKSIFEIFINKGEKVFTGRVFPNDKQTGIVIKSGKPSGNYYELKYLEHHHHHH", "soluble on expression in E. coli": "soluble"},
      {"sequence": "MKTMSEEDSRTASRYAMIREVLRNAIVSGAAAKGLVLLEAPLGELFGTSRVPVRKALNLLHEEGLISRFDGRGYLVNPERQHVEPLRLSLSHKQFGLDSNEELVDTRPLGERIHDEIGAALSACIAFGHYRLDEQSAAQHYGVSRSVVREALMRLRDRGLVEKEPYSQWLAGPLTAREITEDYELRACLEPEALRLTAPQLSRETLEAMLTRVVEAQNAEQCSLEDIERLEEDLHQQCLAGLQNRKIATLISQAQSPMIINRIFYRLLDIGADEAMLAEHRLIIELLLHGAFDAAALNLKEHLQRARQRMLQRLKVLSVLPEQEVPGYLTRLS", "soluble on expression in E. coli": "not soluble"},
      {"sequence": "MGSDKIHHHHHHMPEEIVTRVITFFFPYDSKVEGKNDCVDTYKIHTFPEYENSDWYRGDPRDHSNGQPNGHEMWGHGQIGWWQKDENGWHWYWEDESNMPRPTQGLSEIMSTTTTTGSPLSIYSTTPSDAPETYSDTVLSVVLGF", "soluble on expression in E. coli": "not soluble"},
      {"sequence": "MGSDKIHHHHHHMANALGLDFGTTNTVLAQSIDETTTHSVQFTSMAGTTDSMRTALSFMKDAQLGARALKVEAGQAAIRQFIDNPGDCRFLQSIKTFAASALFQGTLVHARRFQFEDLMEVFLKRLETYAGDGWPATASRIVAGRPVHFAGASPDPELAMRRYNEALTRLGFPEIHYVYEPVAAAFYFAQHLTTDATVLVADFGGGTTDYSLIRFERKAGVLSAVPVGYSGVGLAGDQFDARIIEHLVAPEIGKGSQFKSFDKILDIPSNYYTSFSRWNQLSVFKSSKEFADLKQLVRQSLAPDKLELFIDLVEHDEGYPLYQAVSSTKMALSAADEAEFNFSPLGAAGRKTVKRQDFESWIADDLTRIESALDDVLTRTNTEAGAVDKVFLTGGTSFVPAVRRIFTERFSQDRIESGGEMVSIAHGLALIGDRDDIALWTA", "soluble on expression in E. coli": "not soluble"},
      {"sequence": "MGSDKIHHHHHHMEFLIYSLPEEVLREEMLGNFSVALKLIDDFLKKDLPLLQRERLIYEKERIERLLEDYPFTEKEAMEKMREMFEGFSEGEFQYLMNEGVLDYIVVEGEKRFERRFFHNLAFVRSEYRERLRKDERSEKARRILHERLERLIKGEDPKRYRIRARITLKLKETSSKHRVWLPFPKESLQIESVKLLRTSHKSYYISPNDVPQRTIYFEGEDSTFFVEFEYIVREWVNHVDPERVSEKVAGFEEFLKEEPPHIVFTPKLRWLTQTVVGSEVNPYLKAKRIYDWITLNVRYSYVKPYALYENITDFVVNNLKGDCGFQALLFITMCRIAGVPARWQSGWYINPIFGSPHDWALFYVEPYGWLPADLSFGGARRDNESFRSFYFGNLDGFRMVANDGFMKDFDPKTRFVRSDPTDNQVGEAESEEKRLPFESTIEVISFEEV", "soluble on expression in E. coli": "not soluble"},
      {"sequence": "NVPELIGAQAHAVNVILDAETAYPNLIFSDDLKSVRLGNKWERLPDGPQRFDSCIIVLGSPSFLSGRRYWEVEVGDKTAWILGACKTSISRKGNMTLSPENGYWVVIMMKENEYQASSVPPTRLLIKEPPKRVGIFVDYRVGSISFYNVTARSHIYTFASCSFSGPLQPIFSPGTRDGGKNTAPLTICPVG", "soluble on expression in E. coli": "soluble"},
      {"sequence": "MGSSHHHHHHSSGRENLYFQGHMCILMATRAHPDYELILISNRDEFLARKTHATCWHNNDFILSPYDLAKTSAEKQIFGTWSGINKEGKLATILNLKLDNEQNNTKSRSRGLLPFIFLSIHKADFEDWDNYKKFEGHYDGLKSTGDFNFFYGDVIKKQYKVIDSLGRTFDVLSSTCRKDLDSYMVVSNGKFYDSSSIPGQAWEKVKVARDSLENLVLENIESDEEKIISSCFQLASKSSLPSTISNPDVLQMVDPNVTMNTIYVPPLRRPPRDDLGASIPDGDYYGTRSQIVLLVSKDSTRVTFIERVLYSSDEDVRKYSVTSPKEEKRFKFKL", "soluble on expression in E. coli": "soluble"},
      {"sequence": "MVTFKLNDEFMFGTATASTQIEGGDTGNTWYKWCQEGRIKDSSSCITACDHWNRVEEDTELLKNLGVQTHRMSLEWSRIEPSRGKFSDDAMKHYRDEIKLLVENNIKPLVTLHHFSEPIWFHEMGGWKKTGNADIFIEYVKYVVENLGDLVSDWVTFNEPNVYVDFGYVIGIFPPGERSLSEGLKVTAELINTHVKLYRLIHRIRRERKFAGRTMVGTAMHLRIFDGISSTGKMIAKVVDYLFNEMFMEGMTTGHMMFPLSKKGSSHKKGRYADFLGINYYTRNIVEFVFDPSLYFHELVCDKDLTKSDLGWDIYPEGIYKVCKRYYKKYKLPIYITENGISDKNDTKRPSFIASHLAYIAKAIKEGIPIERYYYWTLMDNFEWLEGESTDFGLYDCNFRTQERIPRKSVRLYEQICRRKELTAEMIEDFKKYSGITIETIR", "soluble on expression in E. coli": "soluble"}
    ]}
  ]
}
